Variants at the floor of the assay were thinned out.
B1: TPR 5TU (parent)
chain: GGAUCUUCUCGAUCUAACAAAAAAGACAAAUCUGCCACAAAGCUUGAGAGCAUCUUCGGAUGCAGAGGCGGCAGCCUUCGGUGGCGCGAUAGCGCCAACGUUCUCAACUAUGACACGCAAAACGCGUGCUCCGUUGAAUGGAGUUUAUCAUG

Variants of: B1
Experiment: polymerase ribozyme fitness, log enrichment relative to wild type (log ratio); higher = more active; in vitro selection for triplet polymerase activity
Outline: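 A heterodimeric triplet polymerase ribozyme had each of its subunits mutagenized by PCR into a library, which was transcribed. One round of in vitro selection, done in triplicate, annealed each library with a biotinylated primer, its partner subunit and triplets, then incubated it frozen at −7 °C before gel excision of extended constructs, streptavidin-bead capture and RT-PCR. Fitness is the logarithm of genotype enrichment relative to wild-type enrichment, based on Illumina sequencing of inputs and outputs and inverse-variance-weighted replicate averages. A base-2 logarithm is used, and genotypes were kept only with ≥10 input reads and ≥1 read per output.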

Point of comparison: G48C G70A C75G C87G C93G G140A G152A, “polymerase ribozyme fitness (log ratio)” value -4.11. Against it:
- A17C G133A — higher, -3.15
- C5A C87U — higher, -0.502
- G59A C87U A121U — higher, -0.901
- A22U G126A — higher, 1.07
- U4A G50A U82G U134C — higher, -2.39
- A39C G133C U146A — higher, -3.57
- G59U C76U C105A A113U C116U — lower, ≤ -4.2
- A28U G50A C85G — lower, ≤ -4.2
- U4C U33A A40U U82G C96G C108U C118U U139C U148A — lower, ≤ -4.2
- A3G A73U A121U — higher, -0.51
- C116G U146G — higher, -0.306
- U33C A60U A73U A122G — higher, -2.54
- G42U U45A C95U C149A — lower, ≤ -4.2
- G68C C99G A106G C129U — lower, ≤ -4.2
- A52G G58U A66G G70U G92A G100A C116A U148A — lower, ≤ -4.2
- C36U G141U A142C — lower, ≤ -4.2
- A20U A28U C96G — lower, ≤ -4.2
- C35G A115G — within 0.2 log units, -3.92
- C131G G133C G136U G141U — higher, -3.43
- C51U C76U C96U A137U U144C U151A — lower, ≤ -4.2
- A47C A49G — higher, -0.809
- A41U U53A G74C U82C — lower, ≤ -4.2
- A73C A142U — lower, ≤ -4.2
- G48A A52U C75U A91G — lower, ≤ -4.2
- U4G A28G A91G C93U A115U G133A — lower, ≤ -4.2
- C14G G50C A66G C85G A106G — lower, ≤ -4.2
- A23G C93U — higher, -3.77
- A60G C95U C96A — higher, -1.03
- C35A G67U G94U — lower, ≤ -4.2
- C54A U61A G67A C75A G80U C96A — lower, ≤ -4.2
- C14U C93A — higher, -3.4
- U127G U144G — higher, -1.7
- C85A G140A — within 0.2 log units, -4.18
- U4A U33A G48C C57U C85U A115G C129G G141U — lower, ≤ -4.2
- C14U C35A A40G G84A — lower, ≤ -4.2
- G84C A142G — higher, -3.03
- A24U C54A G86A — higher, -3.38
- U78G G94U — higher, -3.47
- C54U A64C U90G U139G G140A — lower, ≤ -4.2
- G84A C131G — higher, -3.02
- A29G — higher, -1.81
- A16G C27U A28G C43U U53A C57A U82G C93U G143C — lower, ≤ -4.2
- U56A C76U — higher, 0.105
- A49C G68A — lower, ≤ -4.2
- A28G A49G G50A C87G — lower, ≤ -4.2
- C54A G92A G126U — higher, -3.3
- C5U G50C C87U C103G A121G C123U C125G — lower, ≤ -4.2
- A19C C87U — higher, -0.722
- A24U G80U — higher, -0.195
- A26C A41C A49C G62C A138G — lower, ≤ -4.2
- U45A A66U G71A — lower, ≤ -4.2
- A16U C129A — higher, -3.81
- C63G G67C U135G — lower, ≤ -4.2
- A12G A19U A41U G50C C85U G133A U148C — lower, ≤ -4.2
- C87U G100U C114U — lower, ≤ -4.2
- U6A A22U G59U A73U U109G — higher, -3.52
- A37C A49C C57G C75U A137U G141C — lower, ≤ -4.2
- G11C A47C U55A G81A C87G A120U U144A — lower, ≤ -4.2
- U55G C69A C99U — higher, -0.89
- U9C U15G C54A G67C G84A G117A — lower, ≤ -4.2
- A23C C87U G112U — within 0.2 log units, -3.99
- C10U G141A — higher, -2.07
- U7G A12G A52U C57A A73G C93G — lower, ≤ -4.2
- A22G C85U C95G U135G — higher, -3.76
- A21U C36A A64C G86C — lower, ≤ -4.2
- A17U G42A A91C A122U G136C — lower, ≤ -4.2
- A17C A47C G94C — higher, -0.464
- G133A G141U — higher, -3.08
- C5A A37U C51U U56A C79A C96G C116G G133C — lower, ≤ -4.2
- A52G U78C A89U — higher, -1.24
- U53A G143A U146C — higher, -2.83
- U104G A119C C123U — higher, 0.501
- A24C C93U C114U A119G — lower, ≤ -4.2
- G42U U44A C54A G88U — lower, ≤ -4.2
- A39U C96A — higher, -2.81
- A30U A41C G70C C93G — lower, ≤ -4.2
- C54U G81A C95U — higher, -0.559
- A52U C75U A147U — higher, -2.82
- U53A G143C — higher, -2.05
- C51U G84U — higher, -1.52
- U45A G88C — lower, ≤ -4.2
- C85U G141C — higher, -0.765

— the RNAGym collection of RNA variant scans (doi:10.1073/pnas.2313332121)
